Assay results: patent US20220074941A1, “HSP90 COMBINATION THERAPY” (Sloan-Kettering Institute for Cancer Research, priority 2011, published 2022)

B1: PSPC1 (protein, UniProt Q8WXF1 1-523, looked up)
Paraspeckle component 1: MMLRGNLKQVRIEKNPARLRALESAVGESEPAAAAAMALALAGEPAPPAPAPPEDHPDEEMGFTIDIKSFLKPGEKTYTQRCRLFVGNLPTDITEEDFKRLFERYGEPSEVFINRDRGFGFIRLESRTLAEIAKAELDGTILKSRPLRIRFATHGAALTVKNLSPVVSNELLEQAFSQFGPVEKAVVVVDDRGRATGKGFVEFAAKPPARKALERCGDGAFLLTTTPRPVIVEPMEQFDDEDGLPEKLMQKTQQYHKEREQPPRFAQPGTFEFEYASRWKALDEMEKQQREQVDRNIREAKEKLEAEMEAARHEHQLMLMRQDLMRRQEELRRLEELRNQELQKRKQIQLRHEEEHRRREEEMIRHREQEELRRQQEGFKPNYMENREQEMRMGDMGPRGAINMGDAFSPAPAGNQGPPPMMGMNMNNRATIPGPPMGPGPAMGPEGAANMGTPMMPDNGAVHNDRFPQGPPSQMGSPMGSRTGSETPQAPMSGVGPVSGGPGGFGRGSQGGNFEGPNKRRRY
B2: ZC3HAV1 (protein, UniProt Q7Z2W4 2-902, looked up)
Zinc finger CCCH-type …: ADPEVCCFITKILCAHGGRMALDALLQEIALSEPQLCEVLQVAGPDRFVVLETGGEAGITRSVVATTRARVCRRKYCQRPCDNLHLCKLNLLGRCNYSQSERNLCKYSHEVLSEENFKVLKNHELSGLNKEELAVLLLQSDPFFMPEICKSYKGEGRQQICNQQPPCSRLHICDHFTRGNCRFPNCLRSHNLMDRKVLAIMREHGLNPDVVQNIQDICNSKHMQKNPPGPRAPSSHRRNMAYRARSKSRDRFFQGSQEFLASASASAERSCTPSPDQISHRASLEDAPVDDLTRKFTYLGSQDRARPPSGSSKATDLGGTSQAGTSQRFLENGSQEDLLHGNPGSTYLASNSTSAPNWKSLTSWTNDQGARRKTVFSPTLPAARSSLGSLQTPEAVTTRKGTGLLSSDYRIINGKSGTQDIQPGPLFNNNADGVATDITSTRSLNYKSTSSGHREISSPRIQDAGPASRDVQATGRIADDADPRVALVNDSLSDVTSTTSSRVDDHDSEEICLDHLCKGCPLNGSCSKVHFHLPYRWQMLIGKTWTDFEHMETIEKGYCNPGIHLCSVGSYTINFRVMSCDSFPIRRLSTPSSVTKPANSVFTTKWIWYWKNESGTWIQYGEEKDKRKNSNVDSSYLESLYQSCPRGVVPFQAGSRNYELSFQGMIQTNIASKTQKDVIRRPTFVPQWYVQQMKRGPDHQPAKTSSVSLTATFRPQEDFCFLSSKKYKLSEIHHLHPEYVRVSEHFKASMKNFKIEKIKKIENSELLDKFTWKKSQMKEEGKLLFYATSRAYVESICSNNFDSFLHETHENKYGKGIYFAKDAIYSHKNCPYDAKNVVMFVAQVLVGKFTEGNITYTSPPPQFDSCVDTRSNPSVFVIFQKDQVYPQYVIEYTEDKACVIS
B3: DIABLO (protein, UniProt Q9NR28 22-239, looked up)
Diablo IAP-binding …: LCVPVVANFKKRCFSELIRPWHKTVTIGFGVTLCAVPIAQKSEPHSLSSEALMRRAVSLVTDSTSTFLSQTTYALIEAITEYTKAVYTLTSLYRQYTSLLGKMNSEEEDEVWQVIIGARAEMTSKHQEYLKLETTWMTAVGLSEMAAEAAYQTGADQASITARNHIQLVKLQVEEVHQLSRKAETKLAEAQIEELRQKTQEEGEERAESEQEAYLRED

Key:
[1] = tested on: Hsp90 complexes in K562 cell extract; assay: Nano-LC-MS/MS of PU-beads pull-downs; assay type: binding; settings: protein identified in PU-beads pull-down of K562 cell extract, QSTAR-Elite QTof MS
Outline: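 Lysates pre-cleared overnight at 4 °C with control beads, then pulled down with PU-beads or control beads; eluted proteins (2% SDS boil) gel-separated and analysed by nano LC-MS/MS on a QTof. Mascot identification (p<0.05), spectral counts and sequence coverage evaluated in Scaffold.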

[2] = tested on: Hsp90 complexes in Mia-PaCa-2 cell extract; assay: Nano-LC-MS/MS of PU-beads pull-downs; assay type: binding, human; settings: protein identified in PU-beads pull-down of Mia-PaCa-2 cell extract; QSTAR-Elite QTof MS
Outline: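 Lysates pre-cleared overnight at 4 °C with control beads underwent PU-bead pull-down; bound proteins were SDS-eluted, gel-separated, digested and analyzed by nano-LC-MS/MS on a QTof. Identifications used significance p<0.05, 0.4 Da tolerances and one missed cleavage; unique peptide (spectral) counts and sequence coverage were reported.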

Molecule | Number of Assigned Spectra, K562 Prep 1 [1] | Number of Assigned Spectra, K562 Prep 2 [1] | Number of Assigned Spectra, Mia-Paca 2 [2]
B1 | 5 | 2 | 0
B2 | 7 | 0 | 0
B3 | 1 | 0 | 2
